This test addresses AVRPM3^b2/c2 lacking the signal peptide, C-terminally FLAG- or HA-tagged (Blumeria graminis f.sp. tritici). The experiment in a line: cross-linking.

Data on one substance can be found in article doi:10.1101/2024.12.30.629670.

Where “and” joins values, the source holds several entries; their conditions need not be identical. Equal entries are not always repeated.

For “AVRPM3^b2/c2 lacking the signal peptide, C-terminally FLAG- or HA-tagged (natural protein)”, the stoichiometry N was 2 and 3.
